Results on one substance are retold here after patent publication US20070237759A1.

In test [1] the target is PAR-2 expressed on cells, species not stated (Homo sapiens (Human)) (UniProt P55085). In words: cell-based or functional assay.
Test [2] addresses human PAR-2 (proteinase activated receptor-2) (human) (UniProt P55085). In words: cell-based or functional assay.

A value given as a limit tells only on which side of the number the result lay.

As for SAM11 monoclonal antibody to PAR-2, the IC50 KNRK, FLIPR Ca2+ mobilization in test [1] was above 2000 nM. This substance also came in with an IC50 HCT-116, FLIPR Ca2+ mobilization in test [2] above 2000 nM.
